Data taken from US20200255836.
pKd: −log10 of the molar value.

Molecular target: Cas9 (His-Cas9) (Streptococcus pyogenes) (UniProt Q99ZW2)
Test: SPR
Details: Cas9 without guide; 20 mM Tris pH 8.0, 150 mM NaCl, 1 mM MgCl2

Chain of Cas9 (His-Cas9) (Streptococcus pyogenes) (Q99ZW2 whole entry): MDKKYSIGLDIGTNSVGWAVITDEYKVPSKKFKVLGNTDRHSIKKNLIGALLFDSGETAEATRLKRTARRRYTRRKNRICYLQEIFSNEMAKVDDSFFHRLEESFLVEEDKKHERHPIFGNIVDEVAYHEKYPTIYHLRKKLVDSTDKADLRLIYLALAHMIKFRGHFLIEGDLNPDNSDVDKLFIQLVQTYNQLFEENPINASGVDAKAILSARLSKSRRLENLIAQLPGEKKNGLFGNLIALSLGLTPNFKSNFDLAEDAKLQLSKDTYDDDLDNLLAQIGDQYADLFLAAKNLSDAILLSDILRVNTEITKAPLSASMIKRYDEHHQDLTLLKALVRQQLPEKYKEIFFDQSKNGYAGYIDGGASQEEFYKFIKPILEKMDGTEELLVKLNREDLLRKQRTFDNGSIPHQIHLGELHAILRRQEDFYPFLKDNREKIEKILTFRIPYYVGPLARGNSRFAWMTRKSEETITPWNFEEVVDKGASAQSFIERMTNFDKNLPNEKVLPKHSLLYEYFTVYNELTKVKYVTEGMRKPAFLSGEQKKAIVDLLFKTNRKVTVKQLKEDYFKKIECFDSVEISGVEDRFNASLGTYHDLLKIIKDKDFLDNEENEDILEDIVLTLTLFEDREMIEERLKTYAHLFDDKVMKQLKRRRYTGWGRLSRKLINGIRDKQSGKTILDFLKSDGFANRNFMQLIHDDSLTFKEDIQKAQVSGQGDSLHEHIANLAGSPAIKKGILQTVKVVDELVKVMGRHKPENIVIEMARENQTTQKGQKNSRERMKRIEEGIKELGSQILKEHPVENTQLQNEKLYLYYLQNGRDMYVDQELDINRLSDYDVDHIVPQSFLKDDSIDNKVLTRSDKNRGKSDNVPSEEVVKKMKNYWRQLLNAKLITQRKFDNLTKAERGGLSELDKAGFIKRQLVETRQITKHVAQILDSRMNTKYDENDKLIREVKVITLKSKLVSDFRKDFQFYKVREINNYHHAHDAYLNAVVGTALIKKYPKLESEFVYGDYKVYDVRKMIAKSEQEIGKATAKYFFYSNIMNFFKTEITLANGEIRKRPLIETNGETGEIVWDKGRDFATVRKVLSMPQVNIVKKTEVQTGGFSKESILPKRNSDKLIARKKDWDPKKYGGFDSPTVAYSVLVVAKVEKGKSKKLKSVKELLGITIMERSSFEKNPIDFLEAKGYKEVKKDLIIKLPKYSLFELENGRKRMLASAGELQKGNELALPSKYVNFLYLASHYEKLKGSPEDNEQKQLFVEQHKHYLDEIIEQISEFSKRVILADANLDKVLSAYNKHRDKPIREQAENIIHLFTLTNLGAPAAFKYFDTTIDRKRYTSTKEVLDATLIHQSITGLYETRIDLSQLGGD

GAGGCTCTCACATCGGTAACGGTGTGAGAGCCTC [Tetra]
pKd: 5.06
